One molecule from publication PMC4068106 can be followed below.

The target in this test is T1, human C-reactive protein (GMP preparation) (human), P02741.
T1 chain: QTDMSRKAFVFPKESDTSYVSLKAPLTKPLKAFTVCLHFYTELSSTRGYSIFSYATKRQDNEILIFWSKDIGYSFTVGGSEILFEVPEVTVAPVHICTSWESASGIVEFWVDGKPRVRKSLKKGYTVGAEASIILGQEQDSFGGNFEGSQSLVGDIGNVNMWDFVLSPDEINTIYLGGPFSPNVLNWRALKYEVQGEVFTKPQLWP
The experiment in a line: SEC; 0.02 mg in 100 uL on Superdex 200, 0.5 mL/min, 10 mM Tris, 140 mM NaCl, 2 mM CaCl2, pH 8.0; self-assembly of CRP. To be noted: remark: other sources report otherwise.

Broadly, the stoichiometry N is the number of molecules, sites or subunits per partner or assembly.

B1: human C-reactive protein (GMP preparation), P02741 19-224 (natural protein)
chain: QTDMSRKAFVFPKESDTSYVSLKAPLTKPLKAFTVCLHFYTELSSTRGYSIFSYATKRQDNEILIFWSKDIGYSFTVGGSEILFEVPEVTVAPVHICTSWESASGIVEFWVDGKPRVRKSLKKGYTVGAEASIILGQEQDSFGGNFEGSQSLVGDIGNVNMWDFVLSPDEINTIYLGGPFSPNVLNWRALKYEVQGEVFTKPQLWP
modifications: here or on the partner: N-terminal PCA; N-terminal PCA
For the molecule B1, the stoichiometry N came out at 5.
